This passage reports percent infected results from the supplement of paper PMC3353916.

± gives the standard deviation of the averaged measurements.

The series relates to Sindbis virus TE/5'2J-GFP. Put plainly: percent infected (GFP+ in RFP+ ISG-expressing cells); higher = more infection (less antiviral activity). Here is the method: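 Confirmatory testing of 87 ISGs. Triplicate wells of BHK/HA-Zeo (control) or BHK/NZAP-Zeo (ZAP) cells were transduced with lentiviruses co-expressing a human ISG plus TagRFP, then infected 48 h later with SINV TE/5'2J-GFP (moi 5). The % GFP+ cells among RFP+ cells was measured by flow cytometry at 8 h post infection. Fluc lentivirus served as control. Three independent experiments.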

[1] abbreviates: experiment: confirmatory screen 1, BHK/HA-Zeo (control).
[2] abbreviates: experiment: confirmatory screen 1, BHK/NZAP-Zeo (ZAP).
Where [3] appears, read: experiment: confirmatory screen 2, BHK/HA-Zeo (control).
[4] abbreviates: experiment: confirmatory screen 2, BHK/NZAP-Zeo (ZAP).
Setting [5] is: experiment: confirmatory screen 3, BHK/HA-Zeo (control).
The mark [6] stands for this setting: experiment: confirmatory screen 3, BHK/NZAP-Zeo (ZAP).
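Further: Interferon-defective BHK-21 derivatives, ZAP line overexpressing the rat ZAP N-terminal zinc finger domain fused to Zeocin resistance, GFP scored within live singlet TagRFP+ cells.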

With ABTB2, the percent infected by setting is: under setting [1], 94.03 ± 0.73%; under setting [2], 63.5 ± 5.5%; under setting [3], 94.02 ± 0.29%; under setting [4], 95.3 ± 0.29%; under setting [5], 93.9 ± 2%; under setting [6], 94.69 ± 0.42%.

Consider BTN3A3, for which the percent infected is, setting by setting: under setting [1], 82.3 ± 4%; under setting [2], 57.5 ± 0.65%; under setting [3], 93.48 ± 0.51%; under setting [4], 95.55 ± 0.27%; under setting [5], 90.09 ± 0.83%; under setting [6], 89.4 ± 1.4%.

With ISG20, the percent infected under setting [1] was 95.82 ± 0.88%; the percent infected under setting [2] turned out to be 73.1 ± 2.4%; the percent infected under setting [3] was 96.88 ± 0.17%; the percent infected under setting [4] worked out at 95.24 ± 0.15%; the percent infected under setting [5] was 87 ± 2.5%; the percent infected under setting [6] worked out at 90.59 ± 0.73%.

Consider “MAATEISVLSEQFTKIKELELMPEKGLKEEEKDGVCREKDHRSPSELEAERTSGAFQDSVLEEEVELVLAPSEESEKYILTLQTVHFTSEAVELQDMSLLSIQQQEGVQVVVQQPGPGLLWLEEGPRQSLQQCVAISIQQELYSPQEMEVLQFHALEENVMVASEDSKLAVSLAETTGLIKLEEEQEKNQLLAERTKEQLFFVETMSGDERSDEIVLTVSNSNVEEQEDQPTAGQADAEKAKSTKNQRKTKGAKGTFHCDVCMFTSSRMSSFNRHMKTHTSEKPHLCHLCLKTFRTVTLLRNHVNTHTGTRPYKCNDCNMAFVTSGELVRHRRYKHTHEKPFKCSMCKYASVEASKLKRHVRSHTGERPFQCCQCSYASRDTYKLKRHMRTHSGEKPYECHICHTRFTQSGTMKIHILQKHGENVPKYQCPHCATIIARKSDLRVHMRNLHAYSAAELKCRYCSAVFHERYALIQHQKTHKNEKRFKCKHCSYACKQERHMTAHIRTHTGEKPFTCLSCNKCFRQKQLLNAHFRKYHDANFIPTVYKCSKCGKGFSRWINLHRHSEKCGSGEAKSAASGKGRRTRKRKQTILKEATKGQKEAAKGWKEAANGDEAAAEEASTTKGEQFPGEMFPVACRETTARVKEEVDEGVTCEMLLNTMDK [CTCFL]”, for which the percent infected is, setting by setting: under setting [1], 95.5 ± 1.9%; under setting [2], 68 ± 7.4%; under setting [3], 97.4 ± 0.23%; under setting [4], 95.98 ± 0.22%; under setting [5], 88.6 ± 1.2%; under setting [6], 86.4 ± 0.91%.

For the substance MAFF, the percent infected worked out at 92.89 ± 0.73% under setting [1]; 70.1 ± 7.5% under setting [2]; 94.1 ± 0.95% under setting [3]; 93.98 ± 0.15% under setting [4]; 93.24 ± 0.65% under setting [5]; 91.23 ± 0.34% under setting [6].

For “MAGIELERCQQQANEVTEIMRNNFGKVLERGVKLAELQQRSDQLLDMSSTFNKTTQNLAQKKCWENIRYRICVGLVVVGVLLIILIVLLVVFLPQSSDSSSAPRTQDAGIASGPGN [VAMP5]”, the percent infected is 97.4 ± 0.76% under setting [1]; 78.6 ± 3.2% under setting [2]; 96.57 ± 0.3% under setting [3]; 94.74 ± 0.23% under setting [4]; 93.95 ± 0.59% under setting [5]; 93.52 ± 0.17% under setting [6].

For “MAGPERWGPLLLCLLQAAPGRPRLAPPQNVTLLSQNFSVYLTWLPGLGNPQDVTYFVAYQSSPTRRRWREVEECAGTKELLCSMMCLKKQDLYNKFKGRVRTVSPSSKSPWVESEYLDYLFEVEPAPPVLVLTQTEEILSANATYQLPPCMPPLDLKYEVAFWKEGAGNKTLFPVTPHGQPVQITLQPAASEHHCLSARTIYTFSVPKYSKFSKPTCFLLEVPEANWAFLVLPSLLILLLVIAAGGVIWKTLMGNPWFQRAKMPRALDFSGHTHPVATFQPSRPESVNDLFLCPQKELTRGVRPTPRVRAPATQQTRWKKDLAEDEEEEDEEDTEDGVSFQPYIEPPSFLGQEHQAPGHSEAGGVDSGRPRAPLVPSEGSSAWDSSDRSWASTVDSSWDRAGSSGYLAEKGPGQGPGGDGHQESLPPPEFSKDSGFLEELPEDNLSSWATWGTLPPEPNLVPGGPPVSLQTLTFCWESSPEEEEEARESEIEDSDAGSWGAESTQRTEDRGRTLGHYMAR [IL28RA]”, the percent infected by setting is: under setting [1], 11.9 ± 5.4%; under setting [2], 1.35 ± 0.22%; under setting [3], 33 ± 1.4%; under setting [4], 11.4 ± 0.84%; under setting [5], 21.4 ± 1.5%; under setting [6], 8.02 ± 0.72%.

As to “MALAPERAAPRVLFGEWLLGEISSGCYEGLQWLDEARTCFRVPWKHFARKDLSEADARIFKAWAVARGRWPPSSRGGGPPPEAETAERAGWKTNFRCALRSTRRFVMLRDNSGDPADPHKVYALSRELCWREGPGTDQTEAEAPAAVPPPQGGPPGPFLAHTHAGLQAPGPLPAPAGDKGDLLLQAVQQSCLADHLLTASWGADPVPTKAPGEGQEGLPLTGACAGGPGLPAGELYGWAVETTPSPGPQPAALTTGEAAAPESPHQAEPYLSPSPSACTAVQEPSPGALDVTIMYKGRTVLQKVVGHPSCTFLYGPPDPAVRATDPQQVAFPSPAELPDQKQLRYTEELLRHVAPGLHLELRGPQLWARRMGKCKVYWEVGGPPGSASPSTPACLLPRNCDTPIFDFRVFFQELVEFRARQRRGSPRYTIYLGFGQDLSAGRPKEKSLVLVKLEPWLCRVHLEGTQREGVSSLDSSSLSLCLSSANSLYDDIECFLMELEQPA [IRF7]”, the percent infected under setting [1] was found to be 72 ± 5.6%; the percent infected under setting [2] came out at 7.66 ± 2.9%; the percent infected under setting [3] was determined as 95.59 ± 0.13%; the percent infected under setting [4] was found to be 92 ± 0.75%; the percent infected under setting [5] was determined as 69.3 ± 3.4%; the percent infected under setting [6] worked out at 32.8 ± 18%.

With “MALEIHMSDPMCLIENFNEQLKVNQEALEILSAITQPVVVVAIVGLYRTGKSYLMNKLAGKNKGFSVASTVQSHTKGIWIWCVPHPNWPNHTLVLLDTEGLGDVEKADNKNDIQIFALALLLSSTFVYNTVNKIDQGAIDLLHNVTELTDLLKARNSPDLDRVEDPADSASFFPDLVWTLRDFCLGLEIDGQLVTPDEYLENSLRPKQGSDQRVQNFNLPRLCIQKFFPKKKCFIFDLPAHQKKLAQLETLPDDELEPEFVQQVTEFCSYIFSHSMTKTLPGGIMVNGSRLKNLVLTYVNAISSGDLPCIENAVLALAQRENSAAVQKAIAHYDQQMGQKVQLPMETLQELLDLHRTSEREAIEVFMKNSFKDVDQSFQKELETLLDAKQNDICKRNLEASSDYCSALLKDIFGPLEEAVKQGIYSKPGGHNLFIQKTEELKAKYYREPRKGIQAEEVLQKYLKSKESVSHAILQTDQALTETEKKKKEAQVKAEAEKAEAQRLAAIQRQNEQMMQERERLHQEQVRQMEIAKQNWLAEQQKMQEQQMQEQAAQLSTTFQAQNRSLLSELQHAQRTVNNDDPCVLL [GBP5]”, the percent infected came to 95.4 ± 1.4% under setting [1]; 60 ± 5.7% under setting [2]; 97.28 ± 0.17% under setting [3]; 96.34 ± 0.093% under setting [4]; 87.3 ± 1.1% under setting [5]; 86.3 ± 0.93% under setting [6].

Substance “MALLDVCGAPRGQRPESALPVAGSGRRSDPGHYSFSMRSPELALPRGMQPTEFFQSLGGDGERNVQIEMAHGTTTLAFKFQHGVIAAVDSRASAGSYISALRVNKVIEINPYLLGTMSGCAADCQYWERLLAKECRLYYLRNGERISVSAASKLLSNMMCQYRGMGLSMGSMICGWDKKGPGLYYVDEHGTRLSGNMFSTGSGNTYAYGVMDSGYRPNLSPEEAYDLGRRAIAYATHRDSYSGGVVNMYHMKEDGWVKVESTDVSDLLHQYREANQ [PSMB8]” gave a percent infected under setting [1] of 94.7 ± 1.4%; a percent infected under setting [2] of 64.8 ± 5.2%; a percent infected under setting [3] of 95.27 ± 0.2%; a percent infected under setting [4] of 94.97 ± 0.39%; a percent infected under setting [5] of 94.16 ± 0.23%; a percent infected under setting [6] of 94.18 ± 0.46%.

Consider “MALLLALSLLVLWTSPAPTLSGTNDAEDCCLSVTQKPIPGYIVRNFHYLLIKDGCRVPAVVFTTLRGRQLCAPPDQPWVERIIQRLQRTSAKMKRRSS [CCL19]”, for which the percent infected runs as follows: under setting [1], 95.7 ± 1.2%; under setting [2], 81.5 ± 1.8%; under setting [3], 95.5 ± 0.73%; under setting [4], 95.12 ± 0.1%; under setting [5], 92.83 ± 0.53%; under setting [6], 92.52 ± 0.47%.

As to “MAPEINLPGPMSLIDNTKGQLVVNPEALKILSAITQPVVVVAIVGLYRTGKSYLMNKLAGKKNGFSLGSTVKSHTKGIWMWCVPHPKKPEHTLVLLDTEGLGDIEKGDNENDSWIFALAILLSSTFVYNSMGTINQQAMDQLHYVTELTDRIKANSSPGNNSVDDSADFVSFFPAFVWTLRDFTLELEVDGEPITADDYLELSLKLRKGTDKKSKSFNDPRLCIRKFFPKRKCFVFDWPAPKKYLAHLEQLKEEELNPDFIEQVAEFCSYILSHSNVKTLSGGIPVNGPRLESLVLTYVNAISSGDLPCMENAVLALAQIENSAAVEKAIAHYEQQMGQKVQLPTETLQELLDLHRDSEREAIEVFMKNSFKDVDQMFQRKLGAQLEARRDDFCKQNSKASSDCCMALLQDIFGPLEEDVKQGTFSKPGGYRLFTQKLQELKNKYYQVPRKGIQAKEVLKKYLESKEDVADALLQTDQSLSEKEKAIEVERIKAESAEAAKKMLEEIQKKNEEMMEQKEKSYQEHVKQLTEKMERDRAQLMAEQEKTLALKLQEQERLLKEGFENESKRLQKDIWDIQMRSKSLEPICNIL [GBP2]”, the percent infected under setting [1] came to 96.3 ± 0.94%; the percent infected under setting [2] came out at 80.8 ± 0.62%; the percent infected under setting [3] came out at 94.84 ± 0.44%; the percent infected under setting [4] was determined as 95.94 ± 0.23%; the percent infected under setting [5] amounted to 93.28 ± 0.57%; the percent infected under setting [6] was determined as 94.23 ± 0.41%.

With “MAQASPPRPERVLGASSPEARPAQEALLLPTGVFQVAEKMEKRTCALCPKDVEYNVLYFAQSENIAAHENCLLYSSGLVECEDQDPLNPDRSFDVESVKKEIQRGRKLKCKFCHKRGATVGCDLKNCNKNYHFFCAKKDDAVPQSDGVRGIYKLLCQQHAQFPIIAQSAKFSGVKRKRGRKKPLSGNHVQPPETMKCNTFIRQVKEEHGRHTDATVKVPFLKKCKEAGLLNYLLEEILDKVHSIPEKLMDETTSESDYEEIGSALFDCRLFEDTFVNFQAAIEKKIHASQQRWQQLKEEIELLQDLKQTLCSFQENRDLMSSSTSISSLSY [PHF11]”, the percent infected stood at 76.3 ± 5.1% under setting [1]; 50.3 ± 2.9% under setting [2]; 91.99 ± 0.75% under setting [3]; 93.69 ± 0.2% under setting [4]; 89.11 ± 0.58% under setting [5]; 89.89 ± 0.28% under setting [6].
